One assay concerns the target T1, VPS41-FLAG (human, UniProt P49754 1-854).
T1 construct: VPS41, human, HOPS-specific subunit; DNA region encoding the full-length protein fused with a FLAG tag; The label puts FLAG after the name, but the methods say N-terminal tags were used for VPS41 and VPS39; also called HOPS-specific VPS41; source: HEK293, stably transfected (pCMV3), in lysate; not shown: FLAG, N-terminal, kept
T1 sequence (looked up): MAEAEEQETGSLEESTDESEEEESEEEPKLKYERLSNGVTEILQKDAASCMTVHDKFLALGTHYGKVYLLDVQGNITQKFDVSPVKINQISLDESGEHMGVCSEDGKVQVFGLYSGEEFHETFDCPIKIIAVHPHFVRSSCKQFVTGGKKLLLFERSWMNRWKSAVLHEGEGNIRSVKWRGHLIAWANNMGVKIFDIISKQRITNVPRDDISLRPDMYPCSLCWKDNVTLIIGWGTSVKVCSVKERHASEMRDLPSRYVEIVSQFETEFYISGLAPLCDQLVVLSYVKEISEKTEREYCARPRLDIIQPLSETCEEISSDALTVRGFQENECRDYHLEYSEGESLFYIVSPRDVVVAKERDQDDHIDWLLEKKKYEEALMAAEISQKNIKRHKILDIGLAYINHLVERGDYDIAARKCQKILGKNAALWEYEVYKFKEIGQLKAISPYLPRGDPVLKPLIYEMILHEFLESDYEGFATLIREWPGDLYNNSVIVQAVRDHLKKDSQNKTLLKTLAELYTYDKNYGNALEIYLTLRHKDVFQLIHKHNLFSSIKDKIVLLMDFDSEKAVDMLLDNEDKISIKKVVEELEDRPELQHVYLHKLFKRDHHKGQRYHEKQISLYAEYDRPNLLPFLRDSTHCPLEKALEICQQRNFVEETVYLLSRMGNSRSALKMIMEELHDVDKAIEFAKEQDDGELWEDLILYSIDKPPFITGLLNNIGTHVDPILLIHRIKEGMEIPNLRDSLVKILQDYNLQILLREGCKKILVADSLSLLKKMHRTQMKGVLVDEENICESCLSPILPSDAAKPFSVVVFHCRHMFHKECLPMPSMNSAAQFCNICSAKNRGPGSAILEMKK
The experiment in a line: co-IP; anti-FLAG beads on total lysates of HEK293 cells stably transfected with a FLAG-tagged specific subunit, with or without transient overexpression of the counterpart subunit (control: pCMV); endogenous VPS11 and VPS18 detected by western blot, densitometry with ImageJ; lysis buffer 50 mM TRIS-HCl pH 7.5, 150 mM NaCl, 1% Triton X-100, 5 mM EDTA; 1.5 h at 4 °C. The following applies: partners not purified. (A western blot detects proteins with antibodies after separation by electrophoresis.)

A further assay has as its target T2, VPS39-FLAG (human, UniProt Q96JC1 1-886).
T2 construct: VPS39, human, HOPS-specific subunit; DNA region encoding the full-length protein fused with a FLAG tag; also called HOPS-specific VPS39; not shown: FLAG, N-terminal, kept
T2 sequence (looked up): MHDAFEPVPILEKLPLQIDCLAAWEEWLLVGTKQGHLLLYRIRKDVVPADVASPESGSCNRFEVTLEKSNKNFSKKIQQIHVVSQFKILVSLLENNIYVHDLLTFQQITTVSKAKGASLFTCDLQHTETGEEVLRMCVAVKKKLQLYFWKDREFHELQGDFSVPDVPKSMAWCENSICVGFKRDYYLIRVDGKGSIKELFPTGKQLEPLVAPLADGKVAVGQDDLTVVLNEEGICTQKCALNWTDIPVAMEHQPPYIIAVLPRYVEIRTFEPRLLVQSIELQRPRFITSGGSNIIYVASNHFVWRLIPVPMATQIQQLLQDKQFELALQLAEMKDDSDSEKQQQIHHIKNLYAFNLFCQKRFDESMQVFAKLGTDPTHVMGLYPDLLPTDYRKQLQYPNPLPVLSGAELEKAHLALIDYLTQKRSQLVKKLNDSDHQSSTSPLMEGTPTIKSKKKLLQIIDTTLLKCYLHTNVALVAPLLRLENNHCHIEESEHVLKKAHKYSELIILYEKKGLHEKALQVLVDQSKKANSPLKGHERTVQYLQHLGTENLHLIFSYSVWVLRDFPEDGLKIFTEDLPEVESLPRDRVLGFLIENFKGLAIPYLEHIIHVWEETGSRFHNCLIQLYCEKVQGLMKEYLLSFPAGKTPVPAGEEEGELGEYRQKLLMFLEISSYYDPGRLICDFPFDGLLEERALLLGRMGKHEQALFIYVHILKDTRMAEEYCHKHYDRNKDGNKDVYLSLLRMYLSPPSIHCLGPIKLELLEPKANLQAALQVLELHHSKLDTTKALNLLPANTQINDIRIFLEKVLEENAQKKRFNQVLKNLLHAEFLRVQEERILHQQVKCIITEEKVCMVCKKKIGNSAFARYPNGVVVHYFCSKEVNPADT
Described as above. The note with it: partners not purified.

B1: VPS18 (natural protein, human (endogenous in HEK293), UniProt Q9P253 1-973, looked up)
chain: MASILDEYENSLSRSAVLQPGCPSVGIPHSGYVNAQLEKEVPIFTKQRIDFTPSERITSLVVSSNQLCMSLGKDTLLRIDLGKANEPNHVELGRKDDAKVHKMFLDHTGSHLLIALSSTEVLYVNRNGQKVRPLARWKGQLVESVGWNKALGTESSTGPILVGTAQGHIFEAELSASEGGLFGPAPDLYFRPLYVLNEEGGPAPVCSLEAERGPDGRSFVIATTRQRLFQFIGRAAEGAEAQGFSGLFAAYTDHPPPFREFPSNLGYSELAFYTPKLRSAPRAFAWMMGDGVLYGALDCGRPDSLLSEERVWEYPEGVGPGASPPLAIVLTQFHFLLLLADRVEAVCTLTGQVVLRDHFLEKFGPLKHMVKDSSTGQLWAYTERAVFRYHVQREARDVWRTYLDMNRFDLAKEYCRERPDCLDTVLAREADFCFRQRRYLESARCYALTQSYFEEIALKFLEARQEEALAEFLQRKLASLKPAERTQATLLTTWLTELYLSRLGALQGDPEALTLYRETKECFRTFLSSPRHKEWLFASRASIHELLASHGDTEHMVYFAVIMQDYERVVAYHCQHEAYEEALAVLARHRDPQLFYKFSPILIRHIPRQLVDAWIEMGSRLDARQLIPALVNYSQGGEVQQVSQAIRYMEFCVNVLGETEQAIHNYLLSLYARGRPDSLLAYLEQAGASPHRVHYDLKYALRLCAEHGHHRACVHVYKVLELYEEAVDLALQVDVDLAKQCADLPEEDEELRKKLWLKIARHVVQEEEDVQTAMACLASCPLLKIEDVLPFFPDFVTIDHFKEAICSSLKAYNHHIQELQREMEEATASAQRIRRDLQELRGRYGTVEPQDKCATCDFPLLNRPFYLFLCGHMFHADCLLQAVRPGLPAYKQARLEELQRKLGAAPPPAKGSARAKEAEGGAATAGPSREQLKADLDELVAAECVYCGELMIRSIDRPFIDPQRYEEEQLSWL
notes: VPS18, shared class C core subunit of HOPS and CORVET, detected by anti-VPS18 western blot in anti-FLAG precipitates; also called core subunit VPS18; source: endogenous, HEK293 lysate
With B1, the “relative amount bound with VPS8 overexpressed (control cells HEK + pCMV as reference)” value in the assay with VPS41-FLAG was 0.69 relative to control cells. The “relative amount bound with Tgfbrap1-HA overexpressed (control cells HEK + pCMV as reference)” value with VPS39-FLAG was 0.63 relative to control cells.

B2: VPS11 (natural protein, human (endogenous in HEK293), UniProt Q9H270 1-941, looked up)
chain: MAAYLQWRRFVFFDKELVKEPLSNDGAAPGATPASGSAASKFLCLPPGITVCDSGRGSLVFGDMEGQIWFLPRSLQLTGFQAYKLRVTHLYQLKQHNILASVGEDEEGINPLVKIWNLEKRDGGNPLCTRIFPAIPGTEPTVVSCLTVHENLNFMAIGFTDGSVTLNKGDITRDRHSKTQILHKGNYPVTGLAFRQAGKTTHLFVVTTENVQSYIVSGKDYPRVELDTHGCGLRCSALSDPSQDLQFIVAGDECVYLYQPDERGPCFAFEGHKLIAHWFRGYLIIVSRDRKVSPKSEFTSRDSQSSDKQILNIYDLCNKFIAYSTVFEDVVDVLAEWGSLYVLTRDGRVHALQEKDTQTKLEMLFKKNLFEMAINLAKSQHLDSDGLAQIFMQYGDHLYSKGNHDGAVQQYIRTIGKLEPSYVIRKFLDAQRIHNLTAYLQTLHRQSLANADHTTLLLNCYTKLKDSSKLEEFIKKKSESEVHFDVETAIKVLRQAGYYSHALYLAENHAHHEWYLKIQLEDIKNYQEALRYIGKLPFEQAESNMKRYGKILMHHIPEQTTQLLKGLCTDYRPSLEGRSDREAPGCRANSEEFIPIFANNPRELKAFLEHMSEVQPDSPQGIYDTLLELRLQNWAHEKDPQVKEKLHAEAISLLKSGRFCDVFDKALVLCQMHDFQDGVLYLYEQGKLFQQIMHYHMQHEQYRQVISVCERHGEQDPSLWEQALSYFARKEEDCKEYVAAVLKHIENKNLMPPLLVVQTLAHNSTATLSVIRDYLVQKLQKQSQQIAQDELRVRRYREETTRIRQEIQELKASPKIFQKTKCSICNSALELPSVHFLCGHSFHQHCFESYSESDADCPTCLPENRKVMDMIRAQEQKRDLHDQFQHQLKCSNDSFSVIADYFGRGVFNKLTLLTDPPTARLTSSLEAGLQRDLLMHSRRGT
notes: VPS11, shared class C core subunit of HOPS and CORVET, detected by anti-VPS11 western blot in anti-FLAG precipitates; also called core subunit VPS11; source: endogenous, HEK293 lysate
In the case of B2, in the assay with VPS41-FLAG, the “relative amount bound with VPS8 overexpressed (control cells HEK + pCMV as reference)” value was 0.31 relative to control cells. In addition, the “relative amount bound with Tgfbrap1-HA overexpressed (control cells HEK + pCMV as reference)” value with VPS39-FLAG was 0.66 relative to control cells.

The record behind these values is paper PMC11066007, “CORVET-specific subunit levels determine the balance between HOPS/CORVET endosomal tethering complexes” (Scientific Reports, 2024).
